Columns and labels:
Test in all cases: cell-based or functional assay
[1] = biological target: HIV-1 Env of Q23.17 (HIV-1)
[2] = biological target: HIV-1 Env of Q461.e2 (HIV-1)
[3] = biological target: HIV-1 Env of 3016.V5.c36 (HIV-1)
[4] = biological target: HIV-1 Env of ZM53.12 (HIV-1)
[5] = biological target: HIV-1 Env of ZM249.1 (HIV-1)
[6] = biological target: HIV-1 Env of ZM135.10a (HIV-1)
[7] = biological target: HIV-1 Env of ZM233.6 (HIV-1)
[8] = biological target: HIV-1 Env of AC10.29 (HIV-1)
[9] = biological target: HIV-1 Env of CAP244.D3 (HIV-1)
[10] = biological target: HIV-1 Env of CAP210.E8 (HIV-1)
[11] = biological target: HIV-1 Env of UG037.8 (HIV-1)
[12] = biological target: HIV-1 Env of 6535.3 (HIV-1)
[13] = biological target: HIV-1 Env of C1080.c3 (HIV-1)
[14] = biological target: HIV-1 Env of CAP256.SU (HIV-1)
[15] = biological target: HIV-1 Env of THRO.18 (HIV-1)
[16] = biological target: HIV-1 Env of REJO.67 (HIV-1)
[17] = biological target: HIV-1 Env of Q842.d12 (HIV-1)
[18] = biological target: Env of SIVmac251.30 (SIV (SIVmac251))
[19] = biological target: HIV-1 Env of CNE3 (HIV-1)
[20] = biological target: HIV-1 Env of CAP45.G3 (HIV-1)
[21] = biological target: HIV-1 Env of MB539.2B7 (HIV-1)
[22] = biological target: HIV-1 Env of SC422.8 (HIV-1)
[23] = biological target: HIV-1 Env of TRJO.58 (HIV-1)
[24] = biological target: HIV-1 Env of 96ZM651.02 (HIV-1)
[25] = biological target: HIV-1 Env of ZM214.15 (HIV-1)
[26] = biological target: HIV-1 Env of RW020.2 (HIV-1)
[27] = biological target: HIV-1 Env of DU172.17 (HIV-1)
[28] = biological target: HIV-1 Env of MB201 (HIV-1)
[29] = biological target: HIV-1 Env of CAAN.A2 (HIV-1)
[30] = biological target: HIV-1 Env of DU156.12 (HIV-1)
[31] = biological target: HIV-1 Env of TH976.17 (HIV-1)
[32] = biological target: HIV-1 Env of 0260.v5.c36 (HIV-1)
[33] = biological target: HIV-1 Env of Q769.d22 (HIV-1)
[34] = biological target: HIV-1 Env of CAP256.PI (HIV-1)
[35] = biological target: HIV-1 Env of BG505.w6m (HIV-1)
[36] = biological target: HIV-1 Env of Q168.a2 (HIV-1)
[37] = biological target: HIV-1 Env of CM244.ec1 (HIV-1)
[38] = biological target: HIV-1 Env of QH0692.42 (HIV-1)
[39] = biological target: HIV-1 Env of ZM109.4 (HIV-1)
[40] = biological target: HIV-1 Env of 6405.v4.c34 (HIV-1)
[41] = biological target: HIV-1 Env of DU422.01 (HIV-1)
[42] = biological target: HIV-1 Env of ZM197.7 (HIV-1)
[43] = biological target: HIV-1 Env of KER2008.12 (HIV-1)
[44] = biological target: HIV-1 Env of PVO.04 (HIV-1)
[45] = biological target: HIV-1 Env of Q259.d2.17 (HIV-1)
[46] = biological target: HIV-1 Env of RHPA.7 (HIV-1)
[47] = biological target: HIV-1 Env of KER2018.11 (HIV-1)
[48] = biological target: HIV-1 Env of TRO.11 (HIV-1)
[49] = biological target: HIV-1 Env of WITO.33 (HIV-1)
[50] = biological target: HIV-1 Env of 191821.E6.1 (HIV-1)

CAP256-VRC26.24 (antibody)
16.5 µg/mL: IC50 [39]
1.67 µg/mL: IC50 [7]
0.04 µg/mL: IC50 [14]
2.12 µg/mL: IC50 [3]
3.41 µg/mL: IC50 [36]
21.6 µg/mL: IC50 [41]
10.8 µg/mL: IC50 [30]
17.4 µg/mL: IC50 [13]
12.6 µg/mL: IC50 [42]
5.63 µg/mL: IC50 [35]
13.6 µg/mL: IC50 [5]
> 50 µg/mL: IC50 [2] | IC50 [6] | IC50 [8] | IC50 [9] | IC50 [11] | IC50 [12] | IC50 [15] | IC50 [16] | IC50 [17] | IC50 (neutralization, TZM-bl) [18] | IC50 (neutralization, TZM-bl) [19] | IC50 [21] | IC50 [22] | IC50 [23] | IC50 [24] | IC50 [26] | IC50 [27] | IC50 [28] | IC50 [29] | IC50 (neutralization, TZM-bl) [31] | IC50 [32] | IC50 [33] | IC50 [34] | IC50 [37] | IC50 [38] | IC50 [40] | IC50 [43] | IC50 [44] | IC50 [46] | IC50 [48] | IC50 [49]
31.1 µg/mL: IC50 [45]
32 µg/mL: IC50 [25]
0.23 µg/mL: IC50 [10]
0.672 µg/mL: IC50 [20]
0.047 µg/mL: IC50 [4]
5.92 µg/mL: IC50 [1]
1.1 µg/mL: IC50 [47]

CAP256-VRC26.14 (antibody)
0.006 µg/mL: IC50 [4]
> 50 µg/mL: IC50 [1] | IC50 [2] | IC50 [5] | IC50 [6] | IC50 [8] | IC50 [9] | IC50 [11] | IC50 [12] | IC50 [15] | IC50 [16] | IC50 [17] | IC50 [19] | IC50 [20] | IC50 [21] | IC50 [22] | IC50 [23] | IC50 [24] | IC50 [25] | IC50 [26] | IC50 [27] | IC50 [28] | IC50 [29] | IC50 [30] | IC50 [31] | IC50 [32] | IC50 [33] | IC50 [34] | IC50 [36] | IC50 [38] | IC50 [39] | IC50 [40] | IC50 [43] | IC50 [44] | IC50 [46] | IC50 [48] | IC50 [49]
0.03 µg/mL: IC50 [47]
6.16 µg/mL: IC50 [37]
0.75 µg/mL: IC50 [35]
49 µg/mL: IC50 [41]
0.004 µg/mL: IC50 [14]
3.36 µg/mL: IC50 [50]
2.13 µg/mL: IC50 [45]
0.028 µg/mL: IC50 [7]
0.779 µg/mL: IC50 [13]
4.96 µg/mL: IC50 [42]
0.012 µg/mL: IC50 [3] | IC50 [10]

Source: US20200199204A1
